{
  "source": "patent US20250002962",
  "key": {"[1]": {"molecular_target": "rS1 domain 2 R139K (S1 D2 R139K), P0AG67"}, "[2]": {"molecular_target": "rS1 domain 6 (S1 D6), P0AG67"}, "[3]": {"molecular_target": "rS1 domain 5 (S1 D5), P0AG67"}, "[4]": {"molecular_target": "rS1 domain 2 (S1 D2), P0AG67"}, "[5]": {"molecular_target": "rS1 domain 4 (S1 D4), P0AG67"}, "[6]": {"molecular_target": "rS1 domain 3 (S1 D3), P0AG67"}, "[7]": {"molecular_target": "ribosomal protein S1 (rS1), P0AG67"}, "[8]": {"molecular_target": "rS1 domain 2 R139A (S1 D2 R139A), P0AG67"}, "[9]": {"molecular_target": "rS1 domain 1 (S1 D1), P0AG67"}},
  "data": [
    {"protein": "ADP-ribosyltransferase ModB from Escherichia virus T4 (cloned ModB with His6 tag) (protein) MGIINLADVEQLSIKAESVDFQYDMYKKVCEKFTDFEQSVLWQCMEAKKNEALHKHLNEIIKKHLTKSPYQLYRGISKSTKELIKDLQVGEVFSTNRVDSFTTSLHTACSFSYAEYFTETILRLKTDKAFNYSDHISDIILSSPNTEFKYTYEDTDGLDSERTDNLMMIVREQEWMIPIGKYKITSISKEKLHDSFGTFKVYDIEVVELVPRGSLEHHHHHH", "values": [
      {"measurement": "in vitro RNAylation and ADP-ribosylation (SDS-PAGE)", "setting": "BSA, P02769", "value": "control proteins without S1 domain (BSA, NudC inactive quadruple mutant) were not"},
      {"measurement": "ADP-ribosylation level of D2", "setting": "[1]", "value": "the ADP-ribosylation level of D2 is dramatically reduced if R139 is substituted by alanine or lysine"},
      {"measurement": "RNAylation assay with single S1 domains", "setting": "[2]", "value": "For rS1 domains D2 and D6 high RNAylation signals were determined"},
      {"measurement": "RNAylation assay with single S1 domains", "setting": "[3]", "value": "rS1 D1, D3, D4 and D5 domains were modified to a much lesser extent"},
      {"measurement": "RNAylation assay with single S1 domains", "setting": "[4]", "value": "For rS1 domains D2 and D6 high RNAylation signals were determined"},
      {"measurement": "RNAylation with 5'-NXD-10mer-Cy5 RNAs (Tricine gel, band shift)", "setting": "[4]", "value": "rS1 DII was RNAylated in the presence of 5'-NXD-RNAs by ModB"},
      {"measurement": "RNAylation assay with single S1 domains", "setting": "[5]", "value": "rS1 D1, D3, D4 and D5 domains were modified to a much lesser extent"},
      {"measurement": "RNAylation assay with single S1 domains", "setting": "[6]", "value": "rS1 D1, D3, D4 and D5 domains were modified to a much lesser extent"},
      {"measurement": "RNAylation of rS1 with 32P-labelled 5'-NAD-RNA 8mer (SDS-PAGE, autoradiography)", "setting": "[7]", "value": "ModB rapidly RNAylated its known target, ribosomal protein S1 (rS1) without detectable self-RNAylation"},
      {"measurement": "ADP-ribosylation level of D2", "setting": "[8]", "value": "the ADP-ribosylation level of D2 is dramatically reduced if R139 is substituted by alanine or lysine"},
      {"measurement": "RNAylation assay with single S1 domains", "setting": "[9]", "value": "rS1 D1, D3, D4 and D5 domains were modified to a much lesser extent"}
    ]}
  ]
}
